Test results from IntAct's records for PubMed 19236849.

B1: NAD-dependent protein deacetylase sirtuin-1 (Homo sapiens), Q96EB6 (parent)
chain: MADEAALALQPGGSPSAAGADREAASSPAGEPLRKRPRRDGPGLERSPGEPGGAAPEREVPAAARGCPGAAAAALWREAEAEAAAAGGEQEAQATAAAGEGDNGPGLQGPSREPPLADNLYDEDDDDEGEEEEEAAAAAIGYRDNLLFGDEIITNGFHSCESDEEDRASHASSSDWTPRPRIGPYTFVQQHLMIGTDPRTILKDLLPETIPPPELDDMTLWQIVINILSEPPKRKKRKDINTIEDAVKLLQECKKIIVLTGAGVSVSCGIPDFRSRDGIYARLAVDFPDLPDPQAMFDIEYFRKDPRPFFKFAKEIYPGQFQPSLCHKFIALSDKEGKLLRNYTQNIDTLEQVAGIQRIIQCHGSFATASCLICKYKVDCEAVRGDIFNQVVPRCPRCPADEPLAIMKPEIVFFGENLPEQFHRAMKYDKDEVDLLIVIGSSLKVRPVALIPSSIPHEVPQILINREPLPHLHFDVELLGDCDVIINELCHRLGGEYAKLCCNPVKLSEITEKPPRTQKELAYLSELPPTPLHVSEDSSSPERTSPPDSSVIVTLLDQAAKSNDDLDVSESKGCMEEKPQEVQTSRNVESIAEQMENPDLKNVGSSTGEKNERTSVAGTVRKCWPNRVAKEQISRRLDGNQYLFLPPNRYIFHGAEVYSDSEDDVLSSSSCGSNSDSGTCQSPSLEEPMEDESEIEEFYNGLEDEPDVPERAGGAGFGTDGDDQEAINEAISVKQEVTDMNYPSNKS

Variants of: B1
Conditions: with csk21_human CSNK2A1, P68400
csk21_human CSNK2A1, P68400, sequence (P68400 whole entry, looked up): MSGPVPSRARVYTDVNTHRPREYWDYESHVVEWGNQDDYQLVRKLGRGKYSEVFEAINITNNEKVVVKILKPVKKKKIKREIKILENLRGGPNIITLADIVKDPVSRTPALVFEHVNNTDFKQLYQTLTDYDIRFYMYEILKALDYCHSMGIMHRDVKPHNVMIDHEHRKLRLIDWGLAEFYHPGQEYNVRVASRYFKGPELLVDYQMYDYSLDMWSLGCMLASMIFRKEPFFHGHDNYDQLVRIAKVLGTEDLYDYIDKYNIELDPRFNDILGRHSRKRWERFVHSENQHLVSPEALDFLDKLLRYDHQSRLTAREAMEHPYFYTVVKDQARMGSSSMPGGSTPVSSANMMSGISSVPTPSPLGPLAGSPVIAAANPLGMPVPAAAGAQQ

Row | effect of a mutation on the interaction | Variant
1 | decreasing interaction | S659A;S661A
